Data published in paper PMC6436938 (Molecular Cell, 2019).
Each block holds one binder with its values, some of them ahead of it.

Biological target: importin β (Impβ) (human, UniProt Q14974 1-876)
Experiment: pull-down

Sequence of importin β (Impβ) (Q14974 whole entry): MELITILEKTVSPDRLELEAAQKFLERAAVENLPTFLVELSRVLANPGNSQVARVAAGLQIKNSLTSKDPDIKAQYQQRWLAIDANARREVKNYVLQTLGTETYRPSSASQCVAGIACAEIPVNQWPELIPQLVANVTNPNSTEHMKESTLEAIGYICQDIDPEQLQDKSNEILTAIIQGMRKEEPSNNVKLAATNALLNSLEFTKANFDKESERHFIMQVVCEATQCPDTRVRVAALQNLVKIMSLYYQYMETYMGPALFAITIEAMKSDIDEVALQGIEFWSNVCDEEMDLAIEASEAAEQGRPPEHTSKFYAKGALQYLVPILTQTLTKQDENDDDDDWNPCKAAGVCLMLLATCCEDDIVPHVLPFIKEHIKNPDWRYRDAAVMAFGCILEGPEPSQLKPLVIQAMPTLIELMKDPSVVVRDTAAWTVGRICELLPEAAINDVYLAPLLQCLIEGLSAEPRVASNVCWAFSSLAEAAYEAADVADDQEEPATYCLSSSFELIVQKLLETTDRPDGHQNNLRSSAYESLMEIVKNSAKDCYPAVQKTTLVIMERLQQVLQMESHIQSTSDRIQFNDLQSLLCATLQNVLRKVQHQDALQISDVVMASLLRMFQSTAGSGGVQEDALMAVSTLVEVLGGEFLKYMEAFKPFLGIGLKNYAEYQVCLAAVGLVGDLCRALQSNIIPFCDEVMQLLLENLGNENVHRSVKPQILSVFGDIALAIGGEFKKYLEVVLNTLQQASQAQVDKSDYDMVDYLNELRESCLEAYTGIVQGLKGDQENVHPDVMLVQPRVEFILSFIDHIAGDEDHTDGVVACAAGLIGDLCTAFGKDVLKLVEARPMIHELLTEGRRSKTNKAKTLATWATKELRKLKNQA

- binding result: binds
B1: His-tagged H1.0 C-terminal domain (H1C, aas 96–194) (domain or fragment, human, UniProt P07305 96-194, looked up)
chain: AKSDEPKKSVAFKKTKKEIKKVATPKKASKPKKAASKAPTKKPKATPVKKAKKKLAATPKKAKKPKTVKAKPVKASKPKKAKPVKPKAKSSAKRAGKKK

- binding result: binds
B2: Nsp1_FG (497–608), construct containing five FG repeats from nucleoporin Nsp1 (domain or fragment)
chain: not shown
